Experimental findings from patent US20240327530A1 (ICHNOS SCIENCES, published 2024) are described below.

Experiment [1] concerns the target T1, Mouse IL-1RAP, membrane-bound on NIH-3T3 cells (mouse, UniProt Q61730 21-570).
T1 construct: Endogenous protein on cells
T1 sequence (looked up): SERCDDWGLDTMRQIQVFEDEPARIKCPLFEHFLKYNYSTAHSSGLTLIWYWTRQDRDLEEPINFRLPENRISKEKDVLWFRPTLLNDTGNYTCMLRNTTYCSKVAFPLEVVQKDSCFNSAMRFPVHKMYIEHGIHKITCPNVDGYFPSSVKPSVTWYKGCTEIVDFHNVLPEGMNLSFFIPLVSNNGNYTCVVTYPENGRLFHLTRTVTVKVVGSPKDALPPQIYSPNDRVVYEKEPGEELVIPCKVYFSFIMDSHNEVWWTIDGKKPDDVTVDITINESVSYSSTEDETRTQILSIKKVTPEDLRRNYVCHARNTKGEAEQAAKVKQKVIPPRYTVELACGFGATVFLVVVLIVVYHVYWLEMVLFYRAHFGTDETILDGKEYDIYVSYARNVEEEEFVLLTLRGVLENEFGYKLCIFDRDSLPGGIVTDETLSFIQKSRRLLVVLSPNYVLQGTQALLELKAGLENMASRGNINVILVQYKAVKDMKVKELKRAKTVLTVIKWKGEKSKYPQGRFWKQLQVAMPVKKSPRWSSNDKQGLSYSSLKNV
Nature of the experiment: flow cytometry on NIH-3T3 cells, nonlinear sigmoidal regression. On the procedure: In brief, cells were harvested, counted, and plated at 50′000 cells/well in a 96-well round-bottom plate. The plate was centrifuged at 350 g for 3 minutes and the cells were resuspended in […] of FACS® buffer (PBS (1×)+2.5% FCS+2 mM EDTA+0.05% NaN₃) containing various concentrations (ranging from 20 to 0.0001 μg/ml) of either anti-mouse IL-1RAP_candidate_1 or Isotype control_2 antibodies. Stained cells were incubated for 30 minutes at 4° C., washed twice with FACS® buffer at 350 g for 3 min and resuspended in 100 μl of a monoclonal anti-mouse IgG PE-Cyanine7 secondary antibody (Biolegend, 407114) diluted 1/200 in FACS® buffer. Cells were then washed twice, and resuspended in 200 μl of FACS® buffer containing SYTOX® Green dead cell stain (THERMO FISHER […]®, S34860) and samples were acquired on a CYTOFLEX® instruments (Beckman Coulter). The cells were gated based on size on FSC vs SSC and analysed for PE-Cyanine7-geometric mean (geomean) fluorescence intensity using FLOWJO® software. Finally, relative geomean fluorescence intensity was calculated by subtracting fluorescence of anti-mouse IL-1RAP_candidate_1 per fluorescence of Isotype control_2. As depicted in FIG. 11, anti-mouse IL-1RAP_candidate_1 antibody recognizes membrane-bound IL-1RAP expressed on NIH-3T3 cell line. […] Each data point is a measurement for a given cell line. […]

Experiment [2] concerns the target T2, Human IL-1RAP, membrane-bound on human cells (HaCaT, dermal fibroblasts, neutrophils, PBMC, whole blood) (human, UniProt Q9NPH3 21-570).
T2 construct: Endogenous protein on cells
T2 sequence: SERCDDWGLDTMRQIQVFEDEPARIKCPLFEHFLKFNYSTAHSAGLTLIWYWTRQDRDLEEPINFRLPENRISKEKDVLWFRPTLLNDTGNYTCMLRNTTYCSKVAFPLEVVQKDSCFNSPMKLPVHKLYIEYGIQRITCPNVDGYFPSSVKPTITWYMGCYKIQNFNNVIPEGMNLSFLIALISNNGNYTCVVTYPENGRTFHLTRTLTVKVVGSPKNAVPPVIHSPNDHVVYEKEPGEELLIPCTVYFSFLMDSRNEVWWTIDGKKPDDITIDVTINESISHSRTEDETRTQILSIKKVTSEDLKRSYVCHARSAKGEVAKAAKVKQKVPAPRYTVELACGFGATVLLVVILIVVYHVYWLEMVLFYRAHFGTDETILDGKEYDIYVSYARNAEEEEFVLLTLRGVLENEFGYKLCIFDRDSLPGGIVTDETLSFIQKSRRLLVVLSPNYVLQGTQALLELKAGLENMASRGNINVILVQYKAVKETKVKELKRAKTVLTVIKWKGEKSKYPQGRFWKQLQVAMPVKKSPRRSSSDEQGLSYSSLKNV
Nature of the experiment: flow cytometry on HaCaT cell line, nonlinear sigmoidal regression. The protocol: In brief, cells were harvested, counted, and plated at 50,000 cells/well in a 96-well round-bottom plate. The plate was centrifuged at 350 g for 3 minutes and the cells were resuspended in 50 μl of FACS® buffer (PBS (1×)+2.5% FCS+2 mM EDTA+0.05% NaN₃) containing various concentrations (ranging from 50 to 0.00003 μg/ml) of either anti-human IL-1RAP_candidate_1 or Isotype control_5 antibodies. Stained cells were incubated for 30 minutes at 4° C., washed twice with FACS® buffer at 350 g for 3 min and resuspended in […] of a monoclonal anti-human IgG PE-Cyanine7 secondary antibody (Biolegend, 409316) diluted 1/200 in FACS® buffer. Cells were then washed twice and resuspended in 200 μl of FACS® buffer containing SYTOX® Green dead cell stain (THERMO FISHER […]®, S34860) and samples were acquired on a CYTOFLEX® instruments (Beckman Coulter). The cells were gated based on size on FSC vs SSC and analyzed for PE-Cyanine7-geometric mean (geomean) fluorescence intensity using FLOWJO® software. Finally, relative geomean fluorescence intensity was calculated by subtracting fluorescence of anti-human IL-1RAP_candidate_1 per fluorescence of Isotype control_5. As depicted in FIGS. 6A, 6B, 6C, 6D, and 6E, anti-human IL-1RAP_candidate_1 antibody recognizes membrane-bound IL-1RAP expressed on HaCaT cell line and all primary cells. Multiple independent experiments were performed using multiple donors. […]
A general note: Flow cytometry measures light scatter and fluorescence of single cells or particles in a stream.

B1: Anti-IL-1RAP-C3-A3 mmIgG2a LALA (antibody, V domains shown)
VH: EVQLLESGGGLVQPGGSLRLSCAASGFIFSHYGMSWVRQAPGKGLEWVSAISYDGEGTLYADSVKGRFTISRDNSKNTLYLQMNSLRAEDTAVYYCARFRYYTAFDYWGQGTLVTVSS
VL: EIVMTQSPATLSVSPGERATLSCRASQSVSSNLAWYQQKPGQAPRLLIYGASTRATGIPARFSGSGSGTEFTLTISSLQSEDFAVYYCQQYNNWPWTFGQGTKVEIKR
notes: also called anti-IL-1RAP-C3-A3 mouse IgG2a LALA
For the molecule B1, the Kd (usually the free concentration of one partner at which half of the binding sites on the other are occupied at equilibrium, for simple one-to-one binding) in experiment [1] worked out at 1.15 nM.

B2: Anti-IL-1RAP-C8-RecC-ES-IgG1LALA (antibody, V domains shown)
VH: QVQLVQSGAEVKKPGSSVKVSCKASGSPAEPYAIQWVRQAPGQGLEWMGYIIPSLGGYDYAQKFQGRVTITADESTSTAYMELSSLRSEDTAVYYCARGQTLYESGRQFDIWGQGTLVTVSS
VL: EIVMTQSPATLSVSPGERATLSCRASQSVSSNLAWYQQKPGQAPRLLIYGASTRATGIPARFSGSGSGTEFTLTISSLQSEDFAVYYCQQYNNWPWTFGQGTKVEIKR
notes: also called ISB 880-C8-recC-ES
For B2, in experiment [2], the Kd stood at 0.75 nM.
